# Reference: the Human Domainome abundance scans (Beltran et al. 2025)
# ± gives the uncertainty stated by the source.
# B1: POU domain, class 2, transcription factor 2, residues 200 to 269; numbered along this chain, P09086 (parent)
# chain: LEELEQFARTFKQRRIKLGFTQGDVGLAMGKLYGNDFSQTTISRFEALNLSFKNMCKLKPLLEKWLNDAE
# Variants of: B1
# Experiment: abundance fitness (aPCA) (normalised: wild type 0, dead -1); higher = more abundant; growth selection in yeast, the domain comes from the species named
# Conditions: Homo sapiens
row,Variant,abundance fitness
1,LEELEQFARTFKQRRIKLGFTQGDVGLAMGKLYGNDFSQTTINRFEALNLSFKNMCKLKPLLEKWLNDAE,-0.046 ± 0.1
2,LEELEQFARTFKQRRIKLGFTQGDVGLAMGKLYGNDFSQTTIFRFEALNLSFKNMCKLKPLLEKWLNDAE,-0.227 ± 0.079
3,LEELEQFARTFKQRRIKLGATQGDVGLAMGKLYGNDFSQTTISRFEALNLSFKNMCKLKPLLEKWLNDAE,-0.006 ± 0.043
4,LEELEQFARTFKQRRIKLGWTQGDVGLAMGKLYGNDFSQTTISRFEALNLSFKNMCKLKPLLEKWLNDAE,-0.065 ± 0.044
5,LEELEQFARTFKQRRIKLGFTQGDVGLAHGKLYGNDFSQTTISRFEALNLSFKNMCKLKPLLEKWLNDAE,-0.681 ± 0.18
6,LEELEQFARTFKQRRIKLGFTQGDVGLAKGKLYGNDFSQTTISRFEALNLSFKNMCKLKPLLEKWLNDAE,-0.95 ± 0.16
7,LEELEQFARTFKQRRIKLGFTQGDVGLAMGKLYGNDFIQTTISRFEALNLSFKNMCKLKPLLEKWLNDAE,-0.107 ± 0.19
8,LEQLEQFARTFKQRRIKLGFTQGDVGLAMGKLYGNDFSQTTISRFEALNLSFKNMCKLKPLLEKWLNDAE,-0.003 ± 0.061
9,LEELEQFARTFKQRRIKLGFTQGDVGLAMGKLYGNDFSQTTISRFEALNLSFKNMCKLPPLLEKWLNDAE,-0.761 ± 0.12
10,LEELEQFARTFKQRRIKLGFTQGDVGLAMGKLYGNDFSQTTISRFEANNLSFKNMCKLKPLLEKWLNDAE,-0.026 ± 0.076
11,LEELEQFARTFKQRRIKLGFTQGDVGLAMGKLYGNDFSQTTISRFEAWNLSFKNMCKLKPLLEKWLNDAE,-0.158 ± 0.04
12,LEELEQFARTFKQRRIKLGFTQGDVGLAMGKLYGNDFSQTTISRFEALNLSFKNMCKLKPLLEKWLNYAE,-0.076 ± 0.074
13,LEELEQFARTFKQRRIKLGFTQGDVGLAMGKLYGNDFSQTTISRFEALNLSFKNMCKLKPLLEKWLNPAE,-0.349 ± 0.03
14,LEELEQFARTFKRRRIKLGFTQGDVGLAMGKLYGNDFSQTTISRFEALNLSFKNMCKLKPLLEKWLNDAE,-0.054 ± 0.029
15,LEELEQFARTFKQRRIKLGFTQGDVGLAMGKLYGNDFSVTTISRFEALNLSFKNMCKLKPLLEKWLNDAE,-0.002 ± 0.031
16,LEELEQFARTFKQRRIKKGFTQGDVGLAMGKLYGNDFSQTTISRFEALNLSFKNMCKLKPLLEKWLNDAE,-0.177 ± 0.045
17,LEELEQFARTFKQRRIKLGFTQGDVGYAMGKLYGNDFSQTTISRFEALNLSFKNMCKLKPLLEKWLNDAE,0.026 ± 0.12
18,LEELEQFARTFKQRRIKLGFTQGDVGLAMGKLYGNDFSQITISRFEALNLSFKNMCKLKPLLEKWLNDAE,-0.285 ± 0.11
19,LEELEQFARTFKQRRIKLGFTQGDVGLAMGKLYGNDFSQKTISRFEALNLSFKNMCKLKPLLEKWLNDAE,0.232 ± 0.2
20,LEELEQFARTFKQRRIKLGFTQGRVGLAMGKLYGNDFSQTTISRFEALNLSFKNMCKLKPLLEKWLNDAE,-0.177 ± 0.033
21,LEELEQFARTFKQRRIKLGFTQGDVGLAMQKLYGNDFSQTTISRFEALNLSFKNMCKLKPLLEKWLNDAE,0.107 ± 0.14
22,LEELEQFARTFKQRRIKLGFTQGDVGLAMGKLYGNDFSQTTISRFYALNLSFKNMCKLKPLLEKWLNDAE,-0.994 ± 0.29
23,LEELEQFARTFKQRRIKLGFTQGDVGLAMGKLYGNDFSQTTISRFPALNLSFKNMCKLKPLLEKWLNDAE,-0.885 ± 0.2
24,LEELDQFARTFKQRRIKLGFTQGDVGLAMGKLYGNDFSQTTISRFEALNLSFKNMCKLKPLLEKWLNDAE,-0.051 ± 0.083
25,LEELEQFARTFKQRRIKLGFTQGDVGLAMGKLYGNDFSQTTISRFEALNLSFKNMCKLKPLLEKMLNDAE,-0.309 ± 0.12
26,LEELEQFARTFKQRRIKLGFTQGDVGLAMGKLYGNDFSQTTISRFEALNLSFKNMCKLKPLLEKELNDAE,-0.923 ± 0.17

row,Variant,abundance fitness
1,LEELEQFARTFKQRRIKLGFTQGDVGLAMGKLQGNDFSQTTISRFEALNLSFKNMCKLKPLLEKWLNDAE,-0.07 ± 0.065
2,LEELEQFARTFKQRRIKLGFTQGDVGLAMGKLKGNDFSQTTISRFEALNLSFKNMCKLKPLLEKWLNDAE,-0.062 ± 0.048
3,LEELEQFARTFKQRRIKLGFTQGDVGLAMGKLRGNDFSQTTISRFEALNLSFKNMCKLKPLLEKWLNDAE,-0.17 ± 0.035
4,LEELEQFARTFKQRRIKLGFTQGDVGLAMGKLSGNDFSQTTISRFEALNLSFKNMCKLKPLLEKWLNDAE,-0.041 ± 0.035
5,LEELEQFARTFEQRRIKLGFTQGDVGLAMGKLYGNDFSQTTISRFEALNLSFKNMCKLKPLLEKWLNDAE,-0.147 ± 0.22
6,LEELEQFARTFKQRRIKLGFTQGDVGLAMGKLYGNDFSQTLISRFEALNLSFKNMCKLKPLLEKWLNDAE,-0.041 ± 0.038
7,LEELESFARTFKQRRIKLGFTQGDVGLAMGKLYGNDFSQTTISRFEALNLSFKNMCKLKPLLEKWLNDAE,0.001 ± 0.06
8,LEELEQFARTFKQRRIKLGFTQGDVGLAMGKLYGNDFSQTTISRFEALNLSFKNMCKLKPLLEKWTNDAE,-0.355 ± 0.081
9,LEELEQFARTFKQWRIKLGFTQGDVGLAMGKLYGNDFSQTTISRFEALNLSFKNMCKLKPLLEKWLNDAE,-0.271 ± 0.051
10,LEELEQFARTFKQRRIKLGFTQGDVGLAMGKLYGNDFSQTTISRFEALNLSFKNMCKLKPLLEKWLNDAH,-0.341 ± 0.15
11,LEELEQFARTFKQRRIKLGFTQGDVGLAMGKLYGNDFSQTTISRFEALNLSFKNMCKLKPLLEKWLNDAM,-0.072 ± 0.11
12,LEELEQFARTFKQRRIKLGFTQGDVGLAMGKLYGNDFSQTTISRFEALNLSFKNMCDLKPLLEKWLNDAE,-0.47 ± 0.17
13,LEELEQFARTFKQRRIKLGFTQGDVGLAMGKLYGNDFSQTTISRFEALNLSFFNMCKLKPLLEKWLNDAE,-0.044 ± 0.054
14,LEELEQFARTFKQRRIKLGFTQGDVGLAMGKLYGNDFSQTTISRFEALNLSFMNMCKLKPLLEKWLNDAE,-0.055 ± 0.054
15,LEELEQFARTFKQRRIKLGFTQGDVGLAMGKLYGNDGSQTTISRFEALNLSFKNMCKLKPLLEKWLNDAE,-0.28 ± 0.044
16,LEELEQFARTFKQRRIYLGFTQGDVGLAMGKLYGNDFSQTTISRFEALNLSFKNMCKLKPLLEKWLNDAE,-0.121 ± 0.084
17,LEELEQFARTFKQRRIKLGFTQGDVGLAMGKLYGNDFSQTTISRFEALNLIFKNMCKLKPLLEKWLNDAE,-0.684 ± 0.42
18,LEELEQFARTFKQRRIKLGFTQGDVGLAMGKLYGNDFSQTTISRFEALNLDFKNMCKLKPLLEKWLNDAE,0.06 ± 0.072
19,LEELEQFARTFKQRRIKLGFTQGDVGLAMGKLYGNDFSQTTISRFEALNLAFKNMCKLKPLLEKWLNDAE,-0.117 ± 0.035
20,LEELEQFARTFKQRRIKLSFTQGDVGLAMGKLYGNDFSQTTISRFEALNLSFKNMCKLKPLLEKWLNDAE,-0.118 ± 0.034
21,LEELEQFARTFKQRRIKLCFTQGDVGLAMGKLYGNDFSQTTISRFEALNLSFKNMCKLKPLLEKWLNDAE,-0.349 ± 0.085
22,LEELEQFARTFKQRRIKLDFTQGDVGLAMGKLYGNDFSQTTISRFEALNLSFKNMCKLKPLLEKWLNDAE,-0.143 ± 0.11
23,LEELEQFARTFKQRRIKLGFTQGDVGLAMGKLYGNFFSQTTISRFEALNLSFKNMCKLKPLLEKWLNDAE,0.017 ± 0.072
24,LEELEQFARTFKQRRIKLGFTQGDVGLAMGKNYGNDFSQTTISRFEALNLSFKNMCKLKPLLEKWLNDAE,-0.163 ± 0.18
25,LEELEQFARTFKQRRIKLGFLQGDVGLAMGKLYGNDFSQTTISRFEALNLSFKNMCKLKPLLEKWLNDAE,-0.323 ± 0.041
26,LEELEQFARTFKQRRIKLGFTQDDVGLAMGKLYGNDFSQTTISRFEALNLSFKNMCKLKPLLEKWLNDAE,-0.055 ± 0.079

row,Variant,abundance fitness
1,LEELEQFARTFKQRRIKLGFTQGDVGLAMGKLYGNDFSQTTISRFEALNLSFKNMCKLKPLDEKWLNDAE,-0.999 ± 0.1
2,LEELEQFARTFKQRRIKLGFTQGDVGLAMGKLYGADFSQTTISRFEALNLSFKNMCKLKPLLEKWLNDAE,-0.016 ± 0.05
3,LEELEQFARTFKQRRIKLGFTQGDVGLAMGKLYGNDFSQTTISRFEYLNLSFKNMCKLKPLLEKWLNDAE,-0.26 ± 0.091
4,LEELEQFARTFKQRRIKLGFTQGDVGLAMGKLYGNDFSQTTISRFEGLNLSFKNMCKLKPLLEKWLNDAE,-0.002 ± 0.037
5,LEELEQFARTFKQRRIKLGFTQGDVGLAMGKLYGNDFSQTTISRFEALNLSFKNMCKLKPLLEKWLNDRE,-0.007 ± 0.049
6,LEELEQFARTFKQRTIKLGFTQGDVGLAMGKLYGNDFSQTTISRFEALNLSFKNMCKLKPLLEKWLNDAE,-1.01 ± 0.11
7,LEELEQFARTFKQRVIKLGFTQGDVGLAMGKLYGNDFSQTTISRFEALNLSFKNMCKLKPLLEKWLNDAE,-0.806 ± 0.062
8,LEELEQFARTFKQREIKLGFTQGDVGLAMGKLYGNDFSQTTISRFEALNLSFKNMCKLKPLLEKWLNDAE,-0.897 ± 0.12
9,LEELEQFARTFKQRRIKLGFTQGDVGLAMGKLYGNDFSQTTISRFEALNLSFKNMCKWKPLLEKWLNDAE,-0.007 ± 0.038
10,LEELEQFARTFKQRRIKLGFTQGDVGLAMGKLYGNDFSQTTISRFEALNLSFKNMCKSKPLLEKWLNDAE,-0.228 ± 0.054
11,LEELEQFARTFKQRRIKLGFTQGDVGLAMGKLYGNDFSQTTISRFEALNLSFKNMCKEKPLLEKWLNDAE,-0.478 ± 0.091
12,LEELEQFARTFKQRRIKLGFTQGDVGLAMGKLYGNDFSQTTPSRFEALNLSFKNMCKLKPLLEKWLNDAE,-0.857 ± 0.18
13,LEELEQFARTFKQRRIKLGFTQGDVGLAMGKLYGNDFSQTTVSRFEALNLSFKNMCKLKPLLEKWLNDAE,-0.033 ± 0.037
14,LEELEQFARTFKQRRIKLGFTQGDVGLAMGKLYGNDFSQTTISRFEALNLSFKNMCKLKPLLEDWLNDAE,0.003 ± 0.09
15,LEELEQFARTFKQRRIKLGFTQGDVGLAMGKLYGNDFSQTTISRFEALNLSFKNMCKLKPLLESWLNDAE,-0.084 ± 0.073
16,LEELEQFARTFKQRRTKLGFTQGDVGLAMGKLYGNDFSQTTISRFEALNLSFKNMCKLKPLLEKWLNDAE,0.017 ± 0.074
17,LEELEQFARTFKQRRSKLGFTQGDVGLAMGKLYGNDFSQTTISRFEALNLSFKNMCKLKPLLEKWLNDAE,-0.071 ± 0.044
18,LEELEQFARTFKQRRGKLGFTQGDVGLAMGKLYGNDFSQTTISRFEALNLSFKNMCKLKPLLEKWLNDAE,-0.095 ± 0.032
19,LEELEQFARTFKQRRIKLGFTQGDVGLAMGKLYGNDFSQTTISRFEALNLSFKNLCKLKPLLEKWLNDAE,-0.021 ± 0.027
20,LEELEQFARTFKQRRIKLGFTQGDVGLAMGKLYGNDFSQTTISRFEALNLSFKNNCKLKPLLEKWLNDAE,-0.463 ± 0.078
21,LEELEQFARTFKQRRIKLGFTQGDVGLAMGKLYGNDFSQTTISRFEALNLSFKNGCKLKPLLEKWLNDAE,-0.097 ± 0.029
22,LEELEQFAREFKQRRIKLGFTQGDVGLAMGKLYGNDFSQTTISRFEALNLSFKNMCKLKPLLEKWLNDAE,0.012 ± 0.025
23,LEELEQFARTMKQRRIKLGFTQGDVGLAMGKLYGNDFSQTTISRFEALNLSFKNMCKLKPLLEKWLNDAE,-0.167 ± 0.055
24,LEELEQFARTVKQRRIKLGFTQGDVGLAMGKLYGNDFSQTTISRFEALNLSFKNMCKLKPLLEKWLNDAE,-0.239 ± 0.033
25,LEELEQFARTFKQRRIKLGFTQGDVGLAMGKLYGNDFSQTTISRFEALNLSFKVMCKLKPLLEKWLNDAE,0.032 ± 0.055
